Measured values published in publication doi:10.1101/2023.03.22.533679, “Selective inhibitors of the Aurora A-TPX2 protein-protein interaction exhibit in vivo efficacy as targeted anti-mitotic agents” (bioRxiv, 2023).
Where no end group is shown, it is not given here.

T1: Aurora A kinase domain (residues 126-390) with hexa-His tag (human, UniProt O14965 126-390)
T1 construct: Aurora A, human, kinase domain only, residues 126-390, Uniprot O14965; construct for biophysical assays; No removal of the His tag is described; The crystallography constructs differ (Thr287Ala or Cys290Ala; or residues 126-391 without His tag); also called Aurora A protein; pBAT4-AurAS.003 construct; source: E. coli BL21(DE3) with pUBS520, co-expressed with lambda phosphatase, purified (HisTrap, …)
T1 sequence (looked up): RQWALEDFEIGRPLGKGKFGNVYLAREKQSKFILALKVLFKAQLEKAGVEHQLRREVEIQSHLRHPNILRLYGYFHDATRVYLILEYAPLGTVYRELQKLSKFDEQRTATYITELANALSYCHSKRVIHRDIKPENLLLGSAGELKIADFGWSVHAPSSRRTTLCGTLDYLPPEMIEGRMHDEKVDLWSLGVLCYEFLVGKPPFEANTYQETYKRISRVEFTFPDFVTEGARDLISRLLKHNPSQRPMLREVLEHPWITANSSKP


Columns and labels:
[1] = molecular target: T1, Aurora A kinase domain (residues …); experiment: fluorescence polarisation; direct titration of up to 200 nM Aurora A to 11 nM labelled TPX2 peptide; 100 mM HEPES pH 7.4, 100 mM magnesium acetate, 50 mM NaCl, 0.02% P20, 1 mM DTT, 1 mM ATP, 10% (v/v) DMSO; conditions: both partners purified
[2] = molecular target: T1, Aurora A kinase domain (residues …); experiment: ligand-based NMR competition; ligand-based NMR of fragment hits with Aurora A; displacement of the fragments by the TPX2 peptide fragment 7-22; conditions: both partners purified

Kd [1]	binding result [2]	Binder
1.2 nM		SYSYDAPSDFINFSSLDDEGDTQNIDSWFEEKANLENGGGC(Alexa Fluor 488 C5 maleimide)SS (TPX2 (Targeting protein for Xenopus kinesin-like protein 2), residues 7-43, Uniprot Q9ULW0; C-terminal tail that carries the cysteine for labelling; also called labelled TPX2 peptide; labelled TPX2; source: E. coli, purified (Ni Sepharose, labelled, cleaved with HRV 3C protease, second Ni Sepharose, reversed phase C18); not shown: His-tag, N-terminal, cleaved; GB1, N-terminal, cleaved) [TPX2 peptide (residues 7-43) with C-terminal GGGCSS tail, labelled with Alexa Fluor 488]
	binds	SYSYDAPSDFINFSSL (peptide, UniProt Q9ULW0 7-22, looked up, TPX2, amino acids 7-22; Uniprot Q9ULW0 is printed for the longer TPX2 peptide of the methods) [TPX2 peptide fragment (amino acids 7-22)]
